Earlier results, collected in paper PMC13292882.

Key:
[1] = biological target: PCNA (Homo sapiens) (UniProt P12004); settings: cited from earlier work
[2] = biological target: RPA (Homo sapiens) (UniProt P27694); assay: competition peptide displacement; settings: cited from earlier work
Chain of RPA (Homo sapiens) (P27694 2-616, chain 1 of 3): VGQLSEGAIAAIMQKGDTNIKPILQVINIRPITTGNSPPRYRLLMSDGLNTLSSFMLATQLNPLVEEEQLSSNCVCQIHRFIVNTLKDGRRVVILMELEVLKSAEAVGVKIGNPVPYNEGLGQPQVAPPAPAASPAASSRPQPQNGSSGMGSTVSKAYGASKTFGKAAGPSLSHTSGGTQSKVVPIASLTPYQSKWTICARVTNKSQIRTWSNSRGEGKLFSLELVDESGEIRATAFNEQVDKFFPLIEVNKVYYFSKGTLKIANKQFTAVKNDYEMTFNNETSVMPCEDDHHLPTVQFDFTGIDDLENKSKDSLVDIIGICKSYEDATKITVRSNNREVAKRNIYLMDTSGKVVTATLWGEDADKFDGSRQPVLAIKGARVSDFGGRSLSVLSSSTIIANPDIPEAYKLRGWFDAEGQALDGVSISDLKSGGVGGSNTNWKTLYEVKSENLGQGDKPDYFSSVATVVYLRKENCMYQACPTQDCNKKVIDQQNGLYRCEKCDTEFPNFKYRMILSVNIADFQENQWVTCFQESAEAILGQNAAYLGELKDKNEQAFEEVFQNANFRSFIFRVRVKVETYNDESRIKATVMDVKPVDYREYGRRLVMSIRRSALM
Chain of RPA (Homo sapiens) (P15927 whole entry, chain 2 of 3, further chain): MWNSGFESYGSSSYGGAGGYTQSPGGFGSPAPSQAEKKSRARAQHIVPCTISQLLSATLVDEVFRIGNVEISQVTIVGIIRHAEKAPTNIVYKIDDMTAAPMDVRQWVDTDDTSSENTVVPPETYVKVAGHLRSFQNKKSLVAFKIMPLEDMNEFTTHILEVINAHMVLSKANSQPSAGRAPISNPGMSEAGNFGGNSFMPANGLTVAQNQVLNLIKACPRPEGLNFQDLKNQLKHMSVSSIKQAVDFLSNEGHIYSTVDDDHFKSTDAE
Chain of RPA (Homo sapiens) (P35244 2-121, chain 3 of 3, further chain): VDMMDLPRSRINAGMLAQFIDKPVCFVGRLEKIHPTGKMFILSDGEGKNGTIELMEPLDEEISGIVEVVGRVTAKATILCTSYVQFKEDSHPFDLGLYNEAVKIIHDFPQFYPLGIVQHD

Chain of UNG2 (P13051 whole entry): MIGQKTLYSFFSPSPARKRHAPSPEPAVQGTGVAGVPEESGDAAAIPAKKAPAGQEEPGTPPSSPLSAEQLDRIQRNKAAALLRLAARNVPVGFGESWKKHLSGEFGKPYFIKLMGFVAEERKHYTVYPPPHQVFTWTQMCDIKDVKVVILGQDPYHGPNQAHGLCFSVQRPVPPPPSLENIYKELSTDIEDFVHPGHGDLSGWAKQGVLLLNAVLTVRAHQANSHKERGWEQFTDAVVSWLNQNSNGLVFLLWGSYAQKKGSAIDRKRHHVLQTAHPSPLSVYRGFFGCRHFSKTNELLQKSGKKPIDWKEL
Chain of PCNA (Homo sapiens) (P12004 whole entry): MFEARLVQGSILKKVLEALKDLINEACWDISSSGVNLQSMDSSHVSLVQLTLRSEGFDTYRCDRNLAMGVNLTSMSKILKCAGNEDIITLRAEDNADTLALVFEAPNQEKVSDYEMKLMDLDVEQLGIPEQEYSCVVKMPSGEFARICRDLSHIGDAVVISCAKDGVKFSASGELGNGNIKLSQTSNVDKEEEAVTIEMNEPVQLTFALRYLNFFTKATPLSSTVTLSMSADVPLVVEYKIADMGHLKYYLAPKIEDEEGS

For UNG2 (from UniProt P13051), the Kd [1] is listed as 1 µM and the Kd [2] is listed as 3 µM.
